Measured values: patent publication US10662230B2, “Cyclic RGD cell-binding motif and uses thereof” (Spiber Technologies AB, priority 2015, dated 2020)

Tests used:
Type in all cases: cell-based
[1] = tested on: Normal human epidermal keratinocytes (KC); experiment: Early attachment assay, keratinocytes on silk films; conditions: for adhesion in each individual experiment: KC on tested silk films
Procedure: Normal human epidermal keratinocytes from adult skin (NHEK-ad) were purchased from Lonza. Subculture, proliferation and migration experiments were done in KGM-Gold (Lonza), containing bovine pituitary extract, whereas adhesion experiments were performed in KGM-CD (chemically defined), supplemented with CaCl2) to give 1.2 mM Ca^2+.
Cells were harvested at passage 3-8, seeded at 20 000/cm^2 and allowed to adhere to the films or controls for 1 h in a cell incubator before gentle washing twice with pre-warmed phosphate buffered saline (PBS) followed by 10 min fixation with 96% ethanol. After three washings in water, cells were stained for 30 min with 0.1% Crystal Violet in H2O. Plates were dried after extensive washing in water.
Attachment and morphology of cells bound to the films obtained in Example 3 were documented by taking micrographs at 2× and 10× magnification in an inverted bright field microscope. The color was then dissolved in 40 μL 20% acetic acid for 10 min, and 35 μL of the solution was transferred to a 384-well plate for optical density measurement at 595 nm (TECAN Infinite M200). Wells with cells fixed without pre-washing was used as positive control. Wells with no cells were used as blank. Experiments were run in hexaplicates and repeated three times.
Determination of cell coverage area within a defined region (9.12 mm^2) of the micrographs (at 2× magnification) was done using the software NIS elements BR (Nikon).
After seeing this positive effect of the introduced FNCC motif, we wanted to find out how well the FNCC-silk would compare to native, full length fibronectin, where the RGD is presented on a turn loop constrained by the structure. We therefore used fibronectin from bovine plasma (BFN) to coat cell culture wells, as well as naked cell culture treated plastic (TCT), on which KC can be cultured, as a control. Serum-free experimental conditions was chosen to avoid possible interactions between the matrices and serum proteins that potentially could give rise to increased cell adherence.
For this purpose, we used two FN-silk variants where a linear RGD presentation is expected (FIG. 1a). The first variant (FNVS; SEQ ID NO: 15), contains the original sequence of the RGD-containing motif in fibronectin, to show the effect of the native flanking amino acids without influence of the loop conformation. In the second variant (FNSS; SEQ ID NO: 14), the two flanking cysteines in FNCC were substituted for serine, which resembles cysteine but lacks the —SH-group and is therefore unable to form disulfide bridges. The different FN-silk variants, as well as RGD-silk (SEQ ID NO: 16) and WT-silk (SEQ ID NO: 2), were evaluated with primary KC. Cells were analyzed both for early attachment (FIG. 5), spreading and formation of stress fibers (FIG. 6), and focal adhesions (FIG. 7). Early attachment assay and cellular stainings were performed as detailed in Example 6.

[2] = tested on: Normal human epidermal keratinocytes (KC); experiment: Cell spreading by F-actin staining, keratinocytes; conditions: 3 h adhesion; for spreading of KC (total cell area in 4× micrographs): seeding 3 500/cm^2
Procedure: Cells were harvested at passage 3-8, seeded at 3500/cm^2 and allowed to adhere onto films for 20 min, 1 or 3 hours in chamber slides. After gentle washing, cells were fixed with 4% paraformaldehyde, permeabilized with 0.1% Triton X-100 in PBS, and blocked with 1% bovine serum albumin (BSA, AppliChem) in PBS. Secondary antibody was AlexaFlour488 goat anti mouse IgG (H+L), cross adsorbed (Invitrogen), used at 1:500. Phalloidin-AlexaFluor594 (Life Technologies) were used at 1:40 to detect filamentous actin. DAPI was used for nuclear staining. Slides were mounted in Fluorescence mounting medium (Dako, Copenhagen). The stained cells were analyzed using an inverted microscope (Nikon Eclipse Ti) at 4× and 10× magnification. Excitation at 563/45 nm and detection at 625/50 nm was used for red fluorescence, whereas excitation with 387/11 nm and detection at 447/60 nm was used to monitor blue fluorescence. By staining for F-actin, cell spreading and formation of stress fibers in KC after 3 h adhesion were investigated (FIG. 6).

[3] = tested on: Normal human epidermal keratinocytes (KC); experiment: Formation of focal adhesions (F-actin/vinculin staining), keratinocytes; conditions: 3 h adherence, 63× magnification
Procedure: Cells were harvested at passage 3-8, seeded at 3500/cm^2 and allowed to adhere onto films for 20 min, 1 or 3 hours in chamber slides. After gentle washing, cells were fixed with 4% paraformaldehyde, permeabilized with 0.1% Triton X-100 in PBS, and blocked with 1% bovine serum albumin (BSA, AppliChem) in PBS.
Primary antibody were used at the following concentrations in 1% BSA: mouse anti human vinculin (Sigma V9131) at 9.5 μg/ml, mouse-anti human beta1-integrin (activated conformation, clone HUTS-4) at 3.3 μg/mL, or mouse-anti human alpha5-integrin (ligand bound conformation, clone SNAKA-51) at 2.5 μg/mL, both Millipore.
Secondary antibody was AlexaFlour488 goat anti mouse IgG (H+L), cross adsorbed (Invitrogen), used at 1:500. Phalloidin-AlexaFluor594 (Life Technologies) were used at 1:40 to detect filamentous actin. DAPI was used for nuclear staining. Slides were mounted in Fluorescence mounting medium (Dako, Copenhagen).
For microscopic analysis of cell adhesion (formation of focal adhesions and stress fibers), a confocal microscope was used (Carl Zeiss LSM 710) at 10× and 63× magnification.
Quality of focal adhesions were graded from 1-4 regarding presence of small and dim focal adhesion (=1p), small and distinct focal adhesions (=2p), abundant focal adhesions (=3p) and large and bright focal adhesions (=4p), and multiplied with the portion of positive cells expressing this specific type of focal adhesions (0-4, where 0≈none of, 1≈one fourth of, 2≈half of, 3≈three fourths of, and 4≈all of the focal adhesion-positive cells.)
Formation of focal adhesions within the cells was analyzed after 3 h by staining for F-actin in combination with vinculin, which is one of the major components of the focal adhesion complex. Co-staining of F-actin and vinculin is thus a sign of integrin-involved, well established binding of cells to the underlying substrate. Focal adhesions appear as yellow-greenish elongations of the F-actin filaments, often situated close to the cell membrane.
The results from the analysis of formation and characterization of focal adhesions in KC after adherence for 3 h onto films of WT-silk (SEQ ID NO: 2) or silk functionalized with FNCC (SEQ ID NO: 13), FNVS (SEQ ID NO: 15), FNSS (SEQ ID NO: 14) or RGD (SEQ ID NO: 16) is presented in FIG. 7. Slides were scanned with a confocal microscope at 10× for overview (FIG. 7a) and at 63× for details (FIG. 7b). Two types of grading of the focal adhesions in the cells were performed.

| Molecule | cell coverage area within a defined region (9.12 mm^2) ([1]; KC, 1 h adhesion, comparison with bovine fibronectin coating and TCT plastic, serum-free) | cell morphology (F-actin) [2] | spreading of KC (total cell area in 4× micrographs) [2] | quality (grading) of focal adhesions [3] | adhesion in each individual experiment [1] |
| --- | --- | --- | --- | --- | --- |
| BFN: fibronectin from bovine plasma (Sigma-Aldrich F1137), coated at 5 μg/cm^2 [reference compound] | bound equally well to the BFN and the FNCC-silk after 1 h adherence, and importantly both significantly better than TCT | – | – | – | – |
| FNSS-silk: 4RepCT silk with linear control motif STGRGDSPAS (SEQ ID NO: 11), cysteines substituted for serines (protein, Fusion protein) GPNSSTGRGDSPASGSASGQGGYGGLGQGGYGQGAGSSAAAAAAAAAAAAGGQGGQGQGGYGQGSGGSAAAAAAAAAAAAAAAGRGQGGYGQGSGGNAAAAAAAAAAAAAAAGQGGQGGYGRQSQGAGSAAAAAAAAAAAAAAGSGQGGYGGQGQGGYGQSSASASAAASAASTVANSVSRLSSPSAVSRVSSAVSSLVSNGQVNMAALPNIISNISSSVSASAPGASGCEVIVQALLEVITALVQIVSSSSVGYINPSAVNQITNVVANAMAQVMG | – | a higher proportion of cells with a rounded appearance | but not FNSS or FNVS films, gave a significantly increased spreading of KC compared to RGD-film | both prominent and subtle focal adhesions | varied from being similar to RGD-silk to being only somewhat lower than on FNCC-silk |
| FNVS-silk: 4RepCT silk with original fibronectin motif VTGRGDSPAS (SEQ ID NO: 9), linear native control (protein, Fusion protein) GPNSVTGRGDSPASGSASGQGGYGGLGQGGYGQGAGSSAAAAAAAAAAAAGGQGGQGQGGYGQGSGGSAAAAAAAAAAAAAAAGRGQGGYGQGSGGNAAAAAAAAAAAAAAAGQGGQGGYGRQSQGAGSAAAAAAAAAAAAAAGSGQGGYGGQGQGGYGQSSASASAAASAASTVANSVSRLSSPSAVSRVSSAVSSLVSNGQVNMAALPNIISNISSSVSASAPGASGCEVIVQALLEVITALVQIVSSSSVGYINPSAVNQITNVVANAMAQVMG | – | a higher proportion of cells with a rounded appearance | but not FNSS or FNVS films, gave a significantly increased spreading of KC compared to RGD-film | both prominent and subtle focal adhesions | varied from being similar to RGD-silk to being only somewhat lower than on FNCC-silk |
| RGD-silk: 4RepCT silk with the linear RGD containing peptide (SEQ ID NO 12) of Widhe et al. (2013) (protein, Fusion protein) GPNSRGDAGAASGQGGYGGLGQGGYGQGAGSSAAAAAAAAAAAAGGQGGQGQGGYGQGSGGSAAAAAAAAAAAAAAAGRGQGGYGQGSGGNAAAAAAAAAAAAAAAGQGGQGGYGRQSQGAGSAAAAAAAAAAAAAAGSGQGGYGGQGQGGYGQSSASASAAASAASTVANSVSRLSSPSAVSRVSSAVSSLVSNGQVNMAALPNIISNISSSVSASAPGASGCEVIVQALLEVITALVQIVSSSSVGYINPSAVNQITNVVANAMAQVMG | – | a higher proportion of cells with a rounded appearance | – | variation of focal adhesion quality is larger in cells on RGD, FNSS and FNVS than on FNCC-silk | – |
